# Results from PMC2790542.
# Tested on: O=C(O)/C=C\Cl
# Assay: purified protein
# Conditions: active site
substance,measurement,value
cis-3-chloroacrylic acid dehalogenase (cis-CaaD) (coryneform bacterium),Km,200 ± 15 µM
same,kcat,5.9 ± 0.1 s⁻¹
same,kcat/Km,29000 M⁻¹ s⁻¹
